Where two headings read alike, the source gives them in different places.

The source of these data is paper PMC11087256.

The target in assay [1] is GST-EphA2 (UniProt P29317). The assay is described as follows: ELISA; as the ELISA on GST-EphA2-coated plates, gH/gL or gB incubated in the presence of IFITM1 (concentration of IFITM1 not stated).
Assay [2] concerns the target GST-EphA2 (UniProt P29317). The assay is described as follows: ELISA; 200 ng GST-EphA2 coated on 96-well plates overnight at 4 °C, blocked with 5% BSA in PBS; gradient concentrations of 6×His proteins, 2 h at room temperature; anti-His or anti-GST antibody, HRP secondary, absorbance at 450 nm. Background: In an ELISA, binding on a coated surface is turned into a signal by an enzyme label.

The target of assay [3] is GST-EphA2 (UniProt P29317). Described as above. This is another data set of the same source.

As usually defined, the EC50 is the concentration needed to bring the measured effect to its halfway point. Lower therefore signals a more potent agent. In the case of “6×His-gH/gL (from UniProt P03231 19-706; P03212 23-137) (complex)”, the EC50 with IFITM1 with GST-EphA2 [1] came out at 75.7 nM. For the same substance, the figures for the 50% effective concentration (EC50) in the assay with GST-EphA2 [2] and in the assay with GST-EphA2 [3] were 33.5 nM and 32 nM, respectively.

On to “soluble 6×His-IFITM1 fusion protein (sIFITM1) (from UniProt P13164 1-125) (natural protein)”, for which the EC50 with GST-EphA2 [2] came to 15.4 nM.
